From paper PMC4356369, “An intermolecular binding mechanism involving multiple LysM domains mediates carbohydrate recognition by an endopeptidase” (Acta Crystallographica Section D: Biological Crystallography, 2015)

Key:
[1] = target: P60_cata (catalytic domain of P60_tth alone) (Thermus thermophilus); assay: SEC; Superdex 75 10/300 GL, 50 mM Tris-HCl pH 8, 200 mM NaCl, 5 mM beta-mercaptoethanol, 0.5 ml/min; apparent molecular weight from a calibration curve
[2] = target: P60_cata (catalytic domain of P60_tth alone) (Thermus thermophilus); assay: SAXS; small-angle X-ray scattering in solution, ESRF beamline BM-29; molecular weight estimated from the scattering; models evaluated with CRYSOL and CORAL
[3] = target: T1, P60_tth (TTHA0266), full-length (Thermus thermophilus, UniProt Q5SLM7, F76A/R80A/E99A); assay: microscale thermophoresis; format: binding; conditions: labelled protein (200 nM); 50 mM phosphate pH 7.5, 0.1% Tween 20; incubated 1 h at 60°C, measured at room temperature; P60_tth_LysM2_mut
T1 construct: full-length P60_tth (LysM1, LysM2, NlpC/P60 catalytic domain); Trx/His/S-tag fusion cut by TEV, expressed in E. coli BL21 Rosetta 2 (DE3)
T1 sequence (Q5SLM7 entry or part of it F76A/R80A/E99A): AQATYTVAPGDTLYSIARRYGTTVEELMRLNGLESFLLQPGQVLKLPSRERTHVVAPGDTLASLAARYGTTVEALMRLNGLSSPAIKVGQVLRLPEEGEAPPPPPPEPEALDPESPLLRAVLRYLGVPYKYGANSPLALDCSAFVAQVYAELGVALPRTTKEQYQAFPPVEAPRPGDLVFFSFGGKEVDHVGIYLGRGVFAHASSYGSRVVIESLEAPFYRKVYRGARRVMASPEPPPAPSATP

[4] = target: T2, P60_tth (TTHA0266), full-length (Thermus thermophilus, UniProt Q5SLM7, Y28A/R32A/F50A/Q53A); assay: microscale thermophoresis; format: binding; conditions: labelled protein (200 nM); 50 mM phosphate pH 7.5, 0.1% Tween 20; incubated 1 h at 60°C, measured at room temperature; P60_tth_LysM1_mut (Nus/His/S-tag fusion, tags cleaved)
T2 construct: full-length P60_tth (LysM1, LysM2, NlpC/P60 catalytic domain); Trx/His/S-tag fusion cut by TEV, expressed in E. coli BL21 Rosetta 2 (DE3)
T2 sequence (Q5SLM7 entry or part of it Y28A/R32A/F50A/Q53A): as the sequence (Q5SLM7 entry or part of it F76A/R80A/E99A) above, with Y14A, R18A, F36A, Q39A, A62F, A66R, A85E counted along it

[5] = target: T3, P60_tth (TTHA0266), full-length (Thermus thermophilus, UniProt Q5SLM7); assay: microscale thermophoresis; format: binding; conditions: labelled protein (200 nM); 50 mM phosphate pH 7.5, 0.1% Tween 20; incubated 1 h at 60°C, measured at room temperature; read-out: apparent Kd
T3 construct: full-length P60_tth (LysM1, LysM2, NlpC/P60 catalytic domain); Trx/His/S-tag fusion cut by TEV, expressed in E. coli BL21 Rosetta 2 (DE3)
T3 sequence (Q5SLM7 15-258): as the sequence (Q5SLM7 entry or part of it F76A/R80A/E99A) above, with A62F, A66R, A85E counted along it

P60_2LysM = target: T4, P60_2LysM (Thermus thermophilus, UniProt Q5SLM7); assay: X-ray co-crystal structure, […] Å; format: binding; conditions: co-crystallized at protein:sugar 1:2; LysM1 and LysM2 of symmetry-related monomers share one ligand; pH 6.5
T4 construct: gene TTHA0266; LysM1-LysM2 only, no catalytic domain; Trx/His/S-tag fusion cut by TEV, expressed in E. coli
T4 sequence (Q5SLM7 15-114 limits assumed): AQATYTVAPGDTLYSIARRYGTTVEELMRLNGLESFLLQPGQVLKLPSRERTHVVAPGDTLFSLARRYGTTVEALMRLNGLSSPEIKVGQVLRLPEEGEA

[6] = target: P60_tth (TTHA0266), NlpC/P60 D,L-endopeptidase from Thermus thermophilus, full-length protein (Thermus thermophilus) (UniProt Q5SLM7); assay: SEC; Superdex 75 10/300 GL, 50 mM Tris-HCl pH 8, 200 mM NaCl, 5 mM beta-mercaptoethanol, 0.5 ml/min; apparent molecular weight from a calibration curve
[7] = target: P60_tth (TTHA0266), NlpC/P60 D,L-endopeptidase from Thermus thermophilus, full-length protein (Thermus thermophilus) (UniProt Q5SLM7); assay: SAXS; small-angle X-ray scattering in solution, ESRF beamline BM-29; molecular weight estimated from the scattering; models evaluated with CRYSOL and CORAL
[8] = target: the molecule itself; assay: SEC; Superdex 75 10/300 GL, 50 mM Tris-HCl pH 8, 200 mM NaCl, 5 mM beta-mercaptoethanol, 0.5 ml/min; apparent molecular weight from a calibration curve

Question: Which results are given for “P60_cata (catalytic domain of P60_tth alone) (domain or fragment)”?
Answer: stoichiometry N [1]: 2; stoichiometry N [2]: 2

Question: How did the Kd [3] turn out when `CC(=O)N[C@H]1[C@H](O[C@H]2[C@H](O)[C@@H](NC(C)=O)[C@H](O[C@H]3[C@H](O)[C@@H](NC(C)=O)C(O)O[C@@H]3CO)O[C@@H]2CO)O[C@H](CO)[C@@H](O[C@@H]2O[C@H](CO)[C@@H](O[C@@H]3O[C@H](CO)[C@@H](O[C@@H]4O[C@H](CO)[C@@H](O)[C@H](O)[C@H]4NC(C)=O)[C@H](O)[C@H]3NC(C)=O)[C@H](O)[C@H]2NC(C)=O)[C@@H]1O` (stereo partly drawn) [chitohexaose] was run?
Answer: The Kd was 292 ± 86.5 µM.

Question: And the Kd [4]?
Answer: The Kd was 321 ± 112 µM.

Question: What about the Kd [5] of the same molecule?
Answer: The Kd was 90 ± 19.8 µM.

Question: What about the “X-ray co-crystal structure, 1.75 Å” value (P60_2LysM) of the same molecule?
Answer: The value was “solved the crystal structure of P60_2LysM bound to chitohexaose”.

Question: “P60_tth (TTHA0266), NlpC/P60 D,L-endopeptidase from Thermus thermophilus, full-length protein (from UniProt Q5SLM7 1-258) (enzyme)” was tested. Which stoichiometry N [6] did it give?
Answer: Its stoichiometry N is 2.

Question: And the stoichiometry N [7]?
Answer: Its stoichiometry N is 2.

B1: P60_1LysM (P60_tth with the N-terminal LysM domain deleted) (domain or fragment, Thermus thermophilus, UniProt Q5SLM7 62-258, looked up)
chain: SRERTHVVAPGDTLFSLARRYGTTVEALMRLNGLSSPEIKVGQVLRLPEEGEAPPPPPPEPEALDPESPLLRAVLRYLGVPYKYGANSPLALDCSAFVAQVYAELGVALPRTTKEQYQAFPPVEAPRPGDLVFFSFGGKEVDHVGIYLGRGVFAHASSYGSRVVIESLEAPFYRKVYRGARRVMASPEPPPAPSATP
notes: TTHA0266 (P60_tth) of Thermus thermophilus without the N-terminal LysM domain (LysM2, linker and catalytic domain); predicted molecular weight 21.4 kDa; with Val69 and Thr74 of the text this puts the first residue at Ser62; The start was worked out from the translated primer and the residue numbers printed for LysM2; the C-terminus is as in the full-length construct; source: E. coli BL21 Rosetta …
Question: With B1 as the molecule, how does the “stoichiometry N” value [8] read?
Answer: Its value is 2.
